The results in this text go back to paper PMC7959530.

The assay deals with asialofetuin (UniProt P12763). Kind of assay: ELISA. In general terms: An ELISA detects its analyte on a solid surface through an enzyme-linked reagent.
UniProt P12763, sequence (P12763 19-359): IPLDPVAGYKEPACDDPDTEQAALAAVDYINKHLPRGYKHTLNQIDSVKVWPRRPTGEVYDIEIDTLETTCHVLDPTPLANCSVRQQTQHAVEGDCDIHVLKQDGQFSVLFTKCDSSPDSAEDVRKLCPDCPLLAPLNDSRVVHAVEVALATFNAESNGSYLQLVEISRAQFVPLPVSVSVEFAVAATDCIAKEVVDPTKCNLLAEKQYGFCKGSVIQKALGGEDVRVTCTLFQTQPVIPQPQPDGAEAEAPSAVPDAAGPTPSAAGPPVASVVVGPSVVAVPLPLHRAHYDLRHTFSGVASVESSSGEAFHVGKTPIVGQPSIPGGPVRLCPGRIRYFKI

For “PX-Gal3_(Δ116) (fusion protein of APEX2 and galectin-3 lacking the N-terminal domain) (domain or fragment)”, the EC50 (commonly the concentration at which the effect is half-maximal) was determined as 140 nM.
